Measured values taken from patent publication US20230357354A1 (ENCEFA, published 2023).

Key:
[1] = target: human CD38 on cells (Daudi cells; CD38^+ Jurkat T cells) (human, UniProt P28907 1-300); assay: cell-based or functional assay
[2] = target: T1, recombinant human CD38 (Acrobio, ref CD8-H5224) (human, UniProt P28907 43-300); assay: SPR, Biacore 3000, CM5 chip, recombinant human CD38
T1 construct: Bought protein used in Biacore
Protocol: Binding affinity was measured and reported by the equilibrium dissociation constant (KD). Recombinant human CD38 (Acrobio, ref CD8-H5224) dissolved in milliQ water was used.

EC50, glucose uptake (2-NBDG fluorescence), human Daudi cells [1]	Kd [2]	Binder
~0.1 nM		CRDQNFVILEFPVEEQC [looped peptide CRDQNFVILEFPVEEQC (SEQ ID NO: 9), free peptide]
~13 nM	2.3 nM	NSRDQNFVILEFPVE [CD31 peptide NSRDQNFVILEFPVE (linear)]
